Measurements as given in patent US20110166062A1 (INDIANA UNIVERSITY RESEARCH AND TECHNOLOGY, published 2011).
Bridges are numbered along the chain shown (N, C = ends). Where no end group is shown, it is not given here.

T1: GIP receptor (UniProt P48546 22-466)
T1 sequence (looked up): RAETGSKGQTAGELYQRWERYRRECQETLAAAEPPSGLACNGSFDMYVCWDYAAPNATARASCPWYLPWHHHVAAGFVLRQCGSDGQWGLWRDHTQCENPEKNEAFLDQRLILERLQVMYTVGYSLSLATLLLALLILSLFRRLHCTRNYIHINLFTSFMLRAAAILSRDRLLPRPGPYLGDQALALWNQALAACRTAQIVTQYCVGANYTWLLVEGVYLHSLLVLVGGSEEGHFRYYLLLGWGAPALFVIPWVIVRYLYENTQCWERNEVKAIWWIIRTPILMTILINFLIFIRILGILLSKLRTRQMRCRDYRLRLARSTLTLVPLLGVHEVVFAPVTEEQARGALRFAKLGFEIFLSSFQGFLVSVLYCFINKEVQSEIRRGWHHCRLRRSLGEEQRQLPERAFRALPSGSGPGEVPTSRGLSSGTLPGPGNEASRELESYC


Key:
GIP receptor = molecular target: T1, GIP receptor; assay: cell-based or functional assay
GLP-1 receptor = GLP-1 receptor (UniProt P43220 24-463, limits assumed); assay: cell-based or functional assay

| Binder | EC50 (GIP receptor) | EC50 (GLP-1 receptor) | relative activity (GIP receptor) |
| --- | --- | --- | --- |
| HSQGTFTSDYSKYLDEIHQKEFIAWLMNT-NH2 (lactam 16-20; N-terminus assumed; SMILES CC[C@H](C)[C@H](NC(=O)[C@H](Cc1ccccc1)NC(=O)[C@H](CCC(=O)O)NC(=O)[C@@H]1CCCCNC(=O)CC[C@H](NC(=O)[C@H](CC(=O)O)NC(=O)[C@H](CC(C)C)NC(=O)[C@H](Cc2ccc(O)cc2)NC(=O)[C@H](CCCCN)NC(=O)[C@H](CO)NC(=O)[C@H](Cc2ccc(O)cc2)NC(=O)[C@H](CC(=O)O)NC(=O)[C@H](CO)NC(=O)[C@@H](NC(=O)[C@H](Cc2ccccc2)NC(=O)[C@@H](NC(=O)CNC(=O)[C@H](CCC(N)=O)NC(=O)[C@H](CO)NC(=O)[C@@H](N)Cc2c[nH]cn2)[C@@H](C)O)[C@@H](C)O)C(=O)N[C@@H]([C@@H](C)CC)C(=O)N[C@@H](Cc2c[nH]cn2)C(=O)N[C@@H](CCC(N)=O)C(=O)N1)C(=O)N[C@@H](C)C(=O)N[C@@H](Cc1c[nH]c2ccccc12)C(=O)N[C@@H](CC(C)C)C(=O)N[C@@H](CCSC)C(=O)N[C@@H](CC(N)=O)C(=O)N[C@H](C(N)=O)[C@@H](C)O) [mt-61] | 9.99 nM | 0.18 nM |  |
| HSQGTFTSDYSKYLDEIHQKEFIAWLMNT-NH2 (lactam 12-16; N-terminus assumed; SMILES CC[C@H](C)[C@H](NC(=O)[C@H](Cc1ccccc1)NC(=O)[C@H](CCC(=O)O)NC(=O)[C@H](CCCCN)NC(=O)[C@H](CCC(N)=O)NC(=O)[C@H](Cc1c[nH]cn1)NC(=O)[C@@H](NC(=O)[C@@H]1CCC(=O)NCCCC[C@H](NC(=O)[C@H](CO)NC(=O)[C@H](Cc2ccc(O)cc2)NC(=O)[C@H](CC(=O)O)NC(=O)[C@H](CO)NC(=O)[C@@H](NC(=O)[C@H](Cc2ccccc2)NC(=O)[C@@H](NC(=O)CNC(=O)[C@H](CCC(N)=O)NC(=O)[C@H](CO)NC(=O)[C@@H](N)Cc2c[nH]cn2)[C@@H](C)O)[C@@H](C)O)C(=O)N[C@@H](Cc2ccc(O)cc2)C(=O)N[C@@H](CC(C)C)C(=O)N[C@@H](CC(=O)O)C(=O)N1)[C@@H](C)CC)C(=O)N[C@@H](C)C(=O)N[C@@H](Cc1c[nH]c2ccccc12)C(=O)N[C@@H](CC(C)C)C(=O)N[C@@H](CCSC)C(=O)N[C@@H](CC(N)=O)C(=O)N[C@H](C(N)=O)[C@@H](C)O) [mt-63] |  | 0.31 nM |  |
| HSQGTFTSDYSKYLDKIHQEEFIAWLMNT-NH2 [mt-68] |  | 0.82 nM |  |
| HSQGTFTSDYSKYLDKIHQEEFIAWLMNT-NH2 (lactam 16-20; N-terminus assumed; SMILES CC[C@H](C)[C@H](NC(=O)[C@H](Cc1ccccc1)NC(=O)[C@H](CCC(=O)O)NC(=O)[C@@H]1CCC(=O)NCCCC[C@H](NC(=O)[C@H](CC(=O)O)NC(=O)[C@H](CC(C)C)NC(=O)[C@H](Cc2ccc(O)cc2)NC(=O)[C@H](CCCCN)NC(=O)[C@H](CO)NC(=O)[C@H](Cc2ccc(O)cc2)NC(=O)[C@H](CC(=O)O)NC(=O)[C@H](CO)NC(=O)[C@@H](NC(=O)[C@H](Cc2ccccc2)NC(=O)[C@@H](NC(=O)CNC(=O)[C@H](CCC(N)=O)NC(=O)[C@H](CO)NC(=O)[C@@H](N)Cc2c[nH]cn2)[C@@H](C)O)[C@@H](C)O)C(=O)N[C@@H]([C@@H](C)CC)C(=O)N[C@@H](Cc2c[nH]cn2)C(=O)N[C@@H](CCC(N)=O)C(=O)N1)C(=O)N[C@@H](C)C(=O)N[C@@H](Cc1c[nH]c2ccccc12)C(=O)N[C@@H](CC(C)C)C(=O)N[C@@H](CCSC)C(=O)N[C@@H](CC(N)=O)C(=O)N[C@H](C(N)=O)[C@@H](C)O) [mt-69] | 14.6 nM | 0.41 nM | 0.57% |
| YAPGTFISDYSIAMDKIHQQDFVNWLLAQKGKKNWLKHNITQ-NH2 [mt-101] | 71.3 nM |  | 0.06% |
| YSQGTFTSDYSKYLDEQAAKEFVNWLLAGGPSSGAPPPS-NH2 (lactam 16-20; N-terminus assumed; SMILES CC(C)C[C@H](NC(=O)[C@H](CC(C)C)NC(=O)[C@H](Cc1c[nH]c2ccccc12)NC(=O)[C@H](CC(N)=O)NC(=O)[C@@H](NC(=O)[C@H](Cc1ccccc1)NC(=O)[C@H](CCC(=O)O)NC(=O)[C@@H]1CCCCNC(=O)CC[C@H](NC(=O)[C@H](CC(=O)O)NC(=O)[C@H](CC(C)C)NC(=O)[C@H](Cc2ccc(O)cc2)NC(=O)[C@H](CCCCN)NC(=O)[C@H](CO)NC(=O)[C@H](Cc2ccc(O)cc2)NC(=O)[C@H](CC(=O)O)NC(=O)[C@H](CO)NC(=O)[C@@H](NC(=O)[C@H](Cc2ccccc2)NC(=O)[C@@H](NC(=O)CNC(=O)[C@H](CCC(N)=O)NC(=O)[C@H](CO)NC(=O)[C@@H](N)Cc2ccc(O)cc2)[C@@H](C)O)[C@@H](C)O)C(=O)N[C@@H](CCC(N)=O)C(=O)N[C@@H](C)C(=O)N[C@@H](C)C(=O)N1)C(C)C)C(=O)N[C@@H](C)C(=O)NCC(=O)NCC(=O)N1CCC[C@H]1C(=O)N[C@@H](CO)C(=O)N[C@@H](CO)C(=O)NCC(=O)N[C@@H](C)C(=O)N1CCC[C@H]1C(=O)N1CCC[C@H]1C(=O)N1CCC[C@H]1C(=O)N[C@@H](CO)C(N)=O) [mt-127] | 0.518 nM | 0.055 nM |  |
| YSQGTFTSDYSKYLDEQAAKEFIAWLLAGGPSSGAPPPS-NH2 (lactam 16-20; N-terminus assumed; SMILES CC[C@H](C)[C@H](NC(=O)[C@H](Cc1ccccc1)NC(=O)[C@H](CCC(=O)O)NC(=O)[C@@H]1CCCCNC(=O)CC[C@H](NC(=O)[C@H](CC(=O)O)NC(=O)[C@H](CC(C)C)NC(=O)[C@H](Cc2ccc(O)cc2)NC(=O)[C@H](CCCCN)NC(=O)[C@H](CO)NC(=O)[C@H](Cc2ccc(O)cc2)NC(=O)[C@H](CC(=O)O)NC(=O)[C@H](CO)NC(=O)[C@@H](NC(=O)[C@H](Cc2ccccc2)NC(=O)[C@@H](NC(=O)CNC(=O)[C@H](CCC(N)=O)NC(=O)[C@H](CO)NC(=O)[C@@H](N)Cc2ccc(O)cc2)[C@@H](C)O)[C@@H](C)O)C(=O)N[C@@H](CCC(N)=O)C(=O)N[C@@H](C)C(=O)N[C@@H](C)C(=O)N1)C(=O)N[C@@H](C)C(=O)N[C@@H](Cc1c[nH]c2ccccc12)C(=O)N[C@@H](CC(C)C)C(=O)N[C@@H](CC(C)C)C(=O)N[C@@H](C)C(=O)NCC(=O)NCC(=O)N1CCC[C@H]1C(=O)N[C@@H](CO)C(=O)N[C@@H](CO)C(=O)NCC(=O)N[C@@H](C)C(=O)N1CCC[C@H]1C(=O)N1CCC[C@H]1C(=O)N1CCC[C@H]1C(=O)N[C@@H](CO)C(N)=O) [mt-139] | 0.569 nM | 0.142 nM |  |
